Results published in publication PMC11202772.

Molecular target: eel luteotropin/chorionic gonadotropin hormone receptor (eel LH/CGR) (eel)

| Substance | EC50 of cAMP production (HTRF) in CHO-K1 cells transiently expressing eel LH/CGR; ligand 0-1500 ng/mL, 30 min, room temperature [µg/mL] |
| --- | --- |
| tethered eel LH mutant (tethered rec-eel LH-M) with the eLH/CG β-subunit CTP linker between the β-subunit and the α-subunit (from UniProt P08751 135-169) (ligand) | 0.0478 |
| wild-type tethered eel luteinizing hormone (tethered rec-eel LH-wt) (ligand) | 0.139 |
